Source: US20100260677A1, “METHODS AND SYSTEMS FOR TREATMENT AND/OR DIAGNOSIS” (Massachusetts Institute of Technology, priority 2009, published 2010)
Each block holds one molecule with its values, some of them ahead of it. Positions of bridges follow the written chain, without caps; N, C: chain ends. Non-standard residues stand in square brackets, D forms with d. No end group written: not given here. Hyp = O=C(O)[C@@H]1C[C@@H](O)CN1; cY = chlorotyrosine; Ahx = NCCCCCC(=O)O

What was measured:
[1] = system: MDA-MB-435 tumors; test: Small molecule vascular disrupting agents: induction of coagulation in tumors (fibrinogen/albumin tropism); format: in vivo, mice; settings: i.p. DMXAA 20 mg/kg or colchicine 1 mg/kg; 24 hours
Method: Mice bearing MDA-MB-435 tumors were intravenously injected with a mixture of fibrinogen and albumin that had been labeled with unique near-infrared fluorophores (VT750 and VT680, respectively). Immediately after injection, mice were intraperitoneally injected with DMXAA (20 mg/kg) in 200 microliters of sodium bicarbonate buffer or vehicle. At 24 hours after injections, mice were sacrificed and organs removed for fluorescent quantification of protein tropism to tumors (* indicates p=0.014; n=6). […] Mice bearing bilateral MDA-MB-435 tumors were intravenously injected with a mixture of fibrinogen and albumin that had been labeled with unique near-infrared fluorophores (VT750 and VT680, respectively). […] At 24 hours after injections, mice were sacrificed and organs removed for fluorescent quantification of protein tropism to tumors.

[2] = system: MDA-MB-435 tumors; test: Nanoworm receiver homing to externally heated tumors; format: in vivo, mice; settings: 24 hours
Method: (§1) Quantifying NW homing to tumors: Mixtures of NIR-fluorophore-labeled, targeted and control NWs (bearing VT750 and VT680 or VT680 and VT750, respectively) were co-adminstered intravenously in PBS (2 mg Fe/kg) to tumor-bearing nu/nu mice to provide an internal control reference for coagulation-specific NW homing. At 24 hours post-NW injection, mice were sacrificed and organs were analyzed for both NIR-fluorophores (LI-COR Odyssey Infrared Imaging System). For integrated nanoparticle system characterization, mice were additionally imaged under isofluorane anaesthetic before euthanization using a whole animal fluorescence reflectance imaging system (Xenogen, IVIS Imaging System) to visualize the specificity of NW homing to tumors. […] For initial characterization, levels of targeted and control NW homing were plotted by comparing the average NW fluorescence in heated tumors versus unheated tumors (n=4 mice at each temperature). For integrated network evaluation, levels were plotted by comparing the average targeted and untargeted NW fluorescence in irradiated tumors versus un-irradiated tumors (n=4 mice for all conditions).
Having observed that external heating of tumors produced localized coagulation, this response was utilized in an assay to assess the ability of receivers to target tumor coagulation prior to integrating them with signaling components. […]

[3] = system: MDA-MB-435 tumors; test: Integrated PEG-NR signaling / FXIII-NW receiver communication, NIR fluorescence imaging; format: in vivo, mice; settings: PEG-NRs 10 mg Au/kg, 72 h later NWs i.v. + 810 nm ~0.75 W/cm^2 20 min; imaging at 96 hours
Method: as §1
PEG-NRs (or saline) were intravenously-injected into mice bearing bilateral MDA-MB-435 tumors. […]

[4] = system: MDA-MB-435 tumor; test: Autonomous communication between tTF signaling components and FXIII-NW receivers; format: in vivo, mice; settings: tTF-RGD+FXIII-NWs plus heparin 800 units/kg i.v. + 500 units/kg i.p.
Method: For autonomously-communicating nanosystems, NIR-fluorophore-labeled peptide-bearing NWs (bearing VT750 fluorophores) were intravenously (2 mg Fe/kg) in PBS to unanaesthetized MDA-MB-435 tumor-bearing nu/nu mice alone or alongside various tTF signaling components (25 micrograms). At 24 hours post-NW injection, the mice were sacrificed and organs were analyzed for NIR receiver fluorescence (LI-COR Odyssey Infrared Imaging System). For intraoperative fluorescent tumor imaging, mice were anaesthesized and tumours were surgically exposed to reveal detailed tumor fluorescence (LI-COR). The levels of NW homing to tumors were plotted by comparing the average NW fluorescence in fully-excised tumours (n=4 mice at each condition). For whole animal organ distribution, tTF-RGD signaling components were administered intraperitoneally (25 micrograms) and FXIII-NWs were administered intravenously (2 mg Fe/kg) to unanaesthetized mice bearing an MDA-MB-435 tumor.
Nu/nu mice bearing a single MDA-MB-435 tumor were intravenously injected with communicating (tTF-RGD+FXIII-NWs) or control (tTF-RGD+control-NWs) systems, FXIII-NWs alone, or NWs targeted by the peptide used to direct signaling component tumor homing (1 mg/kg tTF-RGD). At 24 hours post-injection, tumors were surgically exposed for fluorescent intraoperative imaging of NW homing. […]

[5] = system: ICAM-1; test: Induction of ICAM-1 expression in HUVECs (immuno-staining); format: cell-based, Human; settings: 10 ng/ml overnight
Method: This example illustrates the induction of ICAM-1 expression in HUVECs. […] Human Umbilical Vein Endothelial Cells (HUVECs) were cultured on slides coated with gelatin in Medium 200 supplemented with LSGS (Cascade Biologics/Invitrogen). One day after plating, cells were treated with 10 ng/ml TNF-alpha or vehicle alone overnight. The next day cells were fixed and immuno-stained for ICAM-1 expression (antibody from Cell Signaling).

[6] = molecular target: T1, coagulation transglutaminase Factor XIII (mouse, UniProt Q8BH61 39-732); test: cell-based or functional assay
T1 sequence (looked up): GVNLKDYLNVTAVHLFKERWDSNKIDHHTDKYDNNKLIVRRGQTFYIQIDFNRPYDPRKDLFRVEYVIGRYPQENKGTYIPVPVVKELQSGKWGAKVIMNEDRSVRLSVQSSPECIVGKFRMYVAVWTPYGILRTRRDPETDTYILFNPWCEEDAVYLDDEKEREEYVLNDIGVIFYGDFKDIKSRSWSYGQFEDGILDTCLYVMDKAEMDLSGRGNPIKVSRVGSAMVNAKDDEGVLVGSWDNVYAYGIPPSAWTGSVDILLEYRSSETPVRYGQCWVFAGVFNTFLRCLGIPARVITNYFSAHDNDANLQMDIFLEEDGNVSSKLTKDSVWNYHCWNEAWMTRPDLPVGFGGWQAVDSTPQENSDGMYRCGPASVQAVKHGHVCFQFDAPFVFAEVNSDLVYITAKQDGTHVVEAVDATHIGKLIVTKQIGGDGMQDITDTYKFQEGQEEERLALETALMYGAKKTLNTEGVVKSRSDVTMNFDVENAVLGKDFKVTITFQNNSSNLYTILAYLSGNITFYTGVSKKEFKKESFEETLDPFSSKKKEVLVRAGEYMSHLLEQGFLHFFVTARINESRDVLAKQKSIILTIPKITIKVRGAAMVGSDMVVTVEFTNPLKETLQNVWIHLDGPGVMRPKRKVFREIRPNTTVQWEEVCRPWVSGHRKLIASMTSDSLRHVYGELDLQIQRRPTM

[7] = molecular target: fibrin (polymerized fibrin deposited in heated tumors of mice) (mouse, UniProt E9PV24 37-789; Q8K0E8 35-481; Q8VCM7 26-436, limits assumed); test: cell-based or functional assay
Chain of fibrin (polymerized fibrin deposited in heated tumors of mice) (E9PV24 37-789 limits assumed, chain 1 of 3): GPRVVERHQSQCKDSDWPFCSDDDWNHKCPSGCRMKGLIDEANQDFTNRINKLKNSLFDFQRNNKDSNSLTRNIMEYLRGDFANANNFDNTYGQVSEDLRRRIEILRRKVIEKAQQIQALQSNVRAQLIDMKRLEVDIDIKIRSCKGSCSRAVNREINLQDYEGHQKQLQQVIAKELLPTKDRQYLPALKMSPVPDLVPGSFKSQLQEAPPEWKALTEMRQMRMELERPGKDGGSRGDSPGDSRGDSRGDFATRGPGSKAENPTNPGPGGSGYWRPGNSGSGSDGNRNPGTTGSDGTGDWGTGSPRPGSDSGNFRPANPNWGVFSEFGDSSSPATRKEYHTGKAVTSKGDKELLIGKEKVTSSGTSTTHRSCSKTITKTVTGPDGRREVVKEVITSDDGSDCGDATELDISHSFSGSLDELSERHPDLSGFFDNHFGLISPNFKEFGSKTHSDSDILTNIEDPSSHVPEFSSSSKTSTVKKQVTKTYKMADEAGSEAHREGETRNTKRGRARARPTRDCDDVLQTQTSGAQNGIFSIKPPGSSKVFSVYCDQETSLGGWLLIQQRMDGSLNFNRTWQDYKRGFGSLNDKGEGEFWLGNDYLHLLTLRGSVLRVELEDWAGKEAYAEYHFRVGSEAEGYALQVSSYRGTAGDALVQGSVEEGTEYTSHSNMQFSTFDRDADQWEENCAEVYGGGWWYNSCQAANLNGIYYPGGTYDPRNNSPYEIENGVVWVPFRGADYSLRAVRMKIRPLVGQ
Chain of fibrin (polymerized fibrin deposited in heated tumors of mice) (Q8K0E8 35-481 limits assumed, chain 2 of 3): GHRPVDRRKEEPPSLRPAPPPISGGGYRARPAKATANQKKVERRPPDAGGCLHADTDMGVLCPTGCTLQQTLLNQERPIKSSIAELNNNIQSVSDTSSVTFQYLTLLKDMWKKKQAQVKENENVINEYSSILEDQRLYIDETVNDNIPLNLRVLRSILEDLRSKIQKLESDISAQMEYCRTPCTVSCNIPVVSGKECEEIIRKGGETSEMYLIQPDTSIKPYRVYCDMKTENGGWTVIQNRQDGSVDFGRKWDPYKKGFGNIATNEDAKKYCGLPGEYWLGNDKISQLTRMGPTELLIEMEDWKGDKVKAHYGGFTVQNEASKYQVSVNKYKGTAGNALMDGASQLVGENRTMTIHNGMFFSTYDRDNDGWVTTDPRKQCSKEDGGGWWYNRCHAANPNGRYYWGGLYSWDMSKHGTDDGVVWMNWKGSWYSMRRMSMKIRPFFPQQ
Chain of fibrin (polymerized fibrin deposited in heated tumors of mice) (Q8VCM7 26-436 limits assumed, chain 3 of 3): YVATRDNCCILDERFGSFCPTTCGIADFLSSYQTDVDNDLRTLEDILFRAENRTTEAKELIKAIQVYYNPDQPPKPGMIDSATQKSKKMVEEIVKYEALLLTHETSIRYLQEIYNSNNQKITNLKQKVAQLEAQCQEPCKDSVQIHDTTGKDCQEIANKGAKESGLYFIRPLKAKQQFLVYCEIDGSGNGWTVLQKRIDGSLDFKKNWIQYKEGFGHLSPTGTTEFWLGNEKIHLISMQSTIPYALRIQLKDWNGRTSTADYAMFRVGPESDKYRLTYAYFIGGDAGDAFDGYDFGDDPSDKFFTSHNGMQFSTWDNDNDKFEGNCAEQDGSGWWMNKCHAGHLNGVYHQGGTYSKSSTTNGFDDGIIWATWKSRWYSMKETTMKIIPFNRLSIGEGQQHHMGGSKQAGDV

Molecule: Cc1ccc2c(=O)c3cccc(CC(=O)O)c3oc2c1C [DMXAA, 5,6-dimethylxanthenone-4-acetic acid]
induction of coagulation in tumors [1]: specifically induced coagulation in tumors

Molecule: FXIII-NWs: magnetofluorescent iron oxide nanoworms derivatized with a peptide substrate for coagulation transglutaminase Factor XIII (SEQ ID NO: 2) (GNQEQVSPLTLLK[Ahx]CK-Fluorescein; not fully specified (residue 15))
histopathological distribution in heated tumors compared with controls ([2]; heated tumors): marked extravasation and interstitial spreading
increase in tumor targeting, heated compared to unheated tumors ([2]; one tumor heated at 45° C. in water bath 20 min): nearly an order of magnitude
increase in accumulation in NR-heated tumors above unirradiated contralateral tumors and tumors on saline-injected mice [3]: over an order of magnitude

Molecule: heparin
amplified vascular targeting when coagulation inhibitor administered alongside the integrated system [4]: absent

Molecule: TNF-alpha
ICAM-1 expression on the cell surface [5]: upregulation of ICAM-1 on the cell surface

accumulation of FXIII-substrate receiving NWs in tumors heated to 45 C against unheated tumors (in vivo, NIR fluorescence at 24 hours) [6]: ~10 fold
accumulation of FXIII-targeted NWs in nanorod-heated tumors against unirradiated contralateral tumors and tumors on saline-injected mice (in vivo, whole-animal fluorescence) [6]: > 10 fold
doxorubicin accumulation in tumors heated to 45 C against unheated controls, FXIII-substrate liposomes (in vivo) [6]: > 40 fold
doxorubicin accumulation in tumors, NR signaling components plus FXIII-LP receivers against the LPs alone (in vivo) [6]: > 40 fold
Molecule: GNQEQVSPLTLLK[Ahx]CK-Fluorescein (also: coupled through the exogenous Cys to nanoworm or liposome carrier)

targeting of fibrin-binding receiving NWs to heated tumors against unheated tumors (in vivo, NIR fluorescence) [7]: ~10 fold
B1: fibrin-binding peptide Ac-d-d-d-G-Y-e-C-hyP-cY-G-L-C-Y-I-Q-K-Fluorescein (peptide)
peptide: Ac-[dD][dD][dD]GY[dE]C[Hyp][cY]GLCYIQK-Fluorescein
modifications: disulfide 7-12 (inferred); not fully specified; printed as Ac-d-d-d-G-Y-e-C-hyP-cY-G-L-C-Y-I-Q-K-Fluorescein; also: attached to nanoworm via the Lys with NHS-PEO5-NHS linker
